Test results from publication PMC9798971, “Alarming and Calming: Opposing Roles of S100A8/S100A9 Dimers and Tetramers on Monocytes” (Advanced Science, 2022).

T1: S100A8/S100A9-tetramer (murine) (murine, UniProt P27005 1-89; P31725 1-113)
T1 chain 1: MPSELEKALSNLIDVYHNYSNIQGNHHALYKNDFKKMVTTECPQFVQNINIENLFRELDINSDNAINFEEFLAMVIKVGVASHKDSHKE
T1 chain 2: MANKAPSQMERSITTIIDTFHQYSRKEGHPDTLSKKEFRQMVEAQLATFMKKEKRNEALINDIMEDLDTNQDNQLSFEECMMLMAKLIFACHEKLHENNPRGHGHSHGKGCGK

T2: murine S100A9-N70A (murine, UniProt P31725 1-113, N70A)
T2 sequence (looked up): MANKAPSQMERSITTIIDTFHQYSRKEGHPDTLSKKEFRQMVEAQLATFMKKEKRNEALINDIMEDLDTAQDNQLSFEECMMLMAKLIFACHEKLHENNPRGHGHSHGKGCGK

T3: murine S100A9 (murine, UniProt P31725 1-113)
T3 construct: S100A9 (MRP14), murine; also called MRP14
T3 sequence (looked up): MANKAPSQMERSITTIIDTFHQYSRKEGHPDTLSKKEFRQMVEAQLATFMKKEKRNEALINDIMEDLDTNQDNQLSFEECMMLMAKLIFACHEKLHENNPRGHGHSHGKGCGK


How the values were obtained:
[1] = target: T1, S100A8/S100A9-tetramer (murine); test: ELISA
murine S100A9-N70A = target: T2, murine S100A9-N70A; test: reconstitution by refolding together, anion exchange chromatography; equal amounts of the two purified proteins mixed with 1 mM DTT, denatured at pH 2, renatured by stepwise increase of pH to 7.4; residual homodimers separated by anion exchange chromatography; settings: both partners purified
murine S100A9 = target: T3, murine S100A9; test: as above; settings: both partners purified

Row | Kd [1] [nM] | binding result (murine S100A9-N70A) | binding result (murine S100A9) | Binder
1 | 5.06 |  |  | recombinant mouse CD69, His-tagged extracellular domain (domain or fragment) NVGKYNCPGLYEKLESSDHHVATCKNEWISYKRTCYFFSTTTKSWALAQRSCSEDAATLAVIDSEKDMTFLKRYSGELEHWIGLKNEANQTWKWANGKEFNSWFNLTGSGRCVSVNHKNVTAVDCEANFHWVCSKPSR
2 |  | binds | binds | murine S100A8 (natural protein, UniProt P27005 1-89, looked up, S100A8 (MRP8), murine; also called MRP8) MPSELEKALSNLIDVYHNYSNIQGNHHALYKNDFKKMVTTECPQFVQNINIENLFRELDINSDNAINFEEFLAMVIKVGVASHKDSHKE
